Test results as given in PMC4904194, “Crystal structure of tyrosine decarboxylase and identification of key residues involved in conformational swing and substrate binding” (Scientific Reports, 2016).

B1: Lactobacillus brevis tyrosine decarboxylase in complex with PLP, holo form (enzyme, Lactobacillus brevis CGMCC 1.2028)
chain: MEKSNRSLKDLDLNALFIGDKAENGQLYKDLLNKLVDEHLGWRKNYIPSDPNMIGPEDQNSPAFKKTVGHMKTVLDQLSERIRTESVPWHSAGRYWGHMNSETLMPALLAYNYAMLWNGNNVAYESSPATSQMEEEVGQEFARLMGYDYGWGHIVADGSLANLEGLWYARNIKSLPFAMKEVNPELVAGKSDWELLNMPTKEIMDLLENAGSQIDEVKKRSARSGKNLQRLGKWLVPQTKHYSWMKAADIIGIGLDQVVPVPIDSNYRMDIQALESIIRKYAAEKTPILGVVGVAGSTEEGAVDGIDKIVALRQKLQKEGIYFYLHVDAAYGGYARALFLDEDDQFIPYKNLQKVHAENHVFTEDKEYIKPEVYAAYKAFDQAESITIDPHKMGYVPYSAGGIVIQDIRMRDTISYFATYVFEKGADIPALLGAYILEGSKAGATAASVWAAHHTLPLNVTGYGKLEGASIEGAHRYYDFLKNLKFEVAGKRISVHPLISPDFNMVDYVLKEDGNDDLIEMNRLNHAFYEQASYVKGSLYGKEYIVSHTDFAIPDYGDSPLAFVESLGFSEVEWRHAGKVTIIRASVMTPYMNQRENFDYFAPRIKKAIQADLEKVYASVNQKENV
modifications: PLP covalently attached to the ε-amino group of K392 (internal aldimine, Schiff base)
notes: Tyrosine decarboxylase (TDC, EC 4.1.1.25) of Lactobacillus brevis CGMCC 1.2028; domains in the structure span residues 7-618; also called holo-LbTDC; LbTDC/PLP complex; source: E. coli BL21(DE3) harboring pET24a-tdc, purified (Ni2+-agarose column); crystallized with PLP at a molar ratio of 1:4
B2: Lactobacillus brevis tyrosine decarboxylase, apo form (without PLP) (enzyme, Lactobacillus brevis CGMCC 1.2028)
chain: B1 chain
notes: Tyrosine decarboxylase (TDC, EC 4.1.1.25) of Lactobacillus brevis CGMCC 1.2028; domains in the structure span residues 7-618; A selenomethionine form was used only for phasing; also called apo-LbTDC; LbTDC; source: E. coli BL21(DE3) harboring pET24a-tdc, purified (Ni2+-agarose column)

What was measured:
[1] = molecular target: the molecule itself; test: crystal structure; LbTDC/PLP complex at a molar ratio of 1:4, 0.1 M sodium cacodylate trihydrate pH 7.0, 0.1 M MgCl2, 16% PEG 4000; space group P21
[2] = molecular target: the molecule itself; test: crystal structure; apo-LbTDC, sitting-drop vapor diffusion at 18 °C, 0.1 M sodium cacodylate trihydrate pH 7.5, 0.2 M MgCl2, 18% PEG 1000; space group P21

Protein	stoichiometry N [1]	stoichiometry N [2]
B1	2	–
B2	–	2
